Test results published in the DeepSol protein solubility set.

Test: soluble on expression in E. coli; label from the status in PepcDB or PDB records

Q: With “MGSDKIHHHHHHMLNSIMEDKKELLKSLLRQIHEGRDVSELKEQFKDVLASISPLEIPLIEQELVKEGISTREIAKMCDIHVELFRESVEGAFSVEDIPEGHPLHTLFMENREIVKDAEMLALLANTLEREMKGEILEEMESVVAELIKVGHTHYNREEMLIFPYIERRGITAIPNVLWFKHDEIRAALRVLHRLLTTDTGERWEEHIKRVVEKAREVSSAMLDMVFRENNIFYPTLKVLLSEGEWRAIREQEEIIGYYKLKPAEWKSDAKPVHPYEIDTTITAEQLISLPEEVQNLLKGQLLKPDSYEVVREDDLRLDEGYLSQREINAIFKALPFDITFVDSNDRVRFFSGSDRIFARTPSVIGRRVHLCHPPRSVHIVDKILKAFRNGERDFAEFWINMGGRIIHIRYFAVRDEGEYLGTVEVVQDVTEIKRLEGEKRLLGWK” as the sequence, how does the “soluble on expression in E. coli” value read?
A: not soluble

Q: For “MGSDKIHHHHHHMLPLEGLTVIAVEQAVAAPYCSSRLADAGAHVIKIERPEGDFARGYDAAAKGQSSYFVWLNRGKESAVVDLATKEGRAELEKLIASADVLLQNLKPGSMDKLGFARERLRKDYPKLIICTISGYGDEGPYAHRKAYDLLIQAESGLASITGGPESASRVGMSIVDVATGATAHAAILEALIGRGRTGQGADIRISMFDVMADWLTVPLLNAEAGNPPKRLGLAHPSIAPYGVFTSKDGKDILISIQSEREWKKLCSDVLRQPDLPNDPRLCNGVERVKNRAYTDKIVADIFGSLTRDDLLEHLAAADIAFAEVNAMEDLSHHPHLRRIEVDTPNGKVSYPAPAAIFVGDERRYGAVPGIGDKRK”, which “soluble on expression in E. coli” value is on record?
A: not soluble

Q: For “MGSDKIHHHHHHMLRDLVYPPGCATCGLPVAKAGSLCSDCWCSVRFIERPYCEILGLPFGFDPGQGMVCAEAIANPPVFDRLRAAVVHDGAARDLVHRLKYGDRTDLAPMMAHWMIRAGGQELLRADAILPVPLHRWRLFSRQYNQSAELGRALAGLSDKPFLPGVLTRVKRTQKQVGLTEKARADNVRGAFKVAENRRDQVFGRHLVLVDDVYTTGATVSAATRALKRAGAVEVTVLTFAMALVTPI”, which “soluble on expression in E. coli” value is on record?
A: not soluble

Q: With “MGSDKIHHHHHHMLRPHHSDNEQITLRSLLQSYRDQTTSNVVWGKIFEDFVTKYLMHDPLHYGRYEKVESYYEWAKERKDWNKNDIGIDLVAKLRHQESYVAIQCKFYKADHQISKKDIDSFIAESGKKIFKYRLLVDSTEVELSDNVNAMIKGQAIPIYRIDLRHMENSRIDWQTYATKKEVVLKSIKKPLPHQEPTMRPRAWIKAFSALAVASFK” as the sequence, how does the “soluble on expression in E. coli” value read?
A: not soluble

Q: Which “soluble on expression in E. coli” value does the source give for “MGSDKIHHHHHHMLRRIKAEQLQVGMFVARLGGPWHARAFRRSRFLVTSEEQVGEIRSSGVDEVWIDILKGRNAPTPQAATSPWETPEPAPALATANSLPAEFGLARELLQSGKSVIGSMFADVRMGRALEVSGALLLVDSASQSLSRHSQALIALARLKARDDYSYMHAFAVCALMVAVGRTMELPPEEVRDLGLAGLLHDIGKLTLPEAVLHKPTSRRPGEDEEIKRHPSAGYRILNEARLNANIVLDVCVHHHERVDGRGYPFGLVGRELSVHARIAAICDTYDSLTSSRPGHQQWSPARAMEYMAVRVDTLFDSRVFKAFTRTVGIYPLGTVLRLRSNRLAVVCAQHESEPLRPRVMAFYSVSASSALTPEVIDLSTSDDTVVAFEDPADWGYTDEQLLAIYAGQGQAGAAQAAAMAMPAA” here?
A: not soluble

Q: With “MGSDKIHHHHHHMLSAMYLIDAFFSRQNNQFHLEQQSHCVNQIIEQWRYNGQIIGREIPQFVAEQKNQQGLAVRVTCPEQTSLLAEFNNQPVNDALQTAEKCGVSFESFHIVAEDLNSEITATETPAWQLLYTTYLQSCSPLQSGESLQPIPLYKQLKNIPHLAMDLVKWQENWQACDQLQMNGSVLEQQALVQISDTQSTLFKHGYHLTQEIERHSGIPTYYYLYRIGGKSCEAELQSRCPLCKRKWTLSHPLFDFLYFKCDHCRLVSNLSWHWQ” as the sequence, how does the “soluble on expression in E. coli” value read?
A: not soluble

Q: With “MGSDKIHHHHHHMLTLANVALLSQLALQQPGETDKKPEDCSFEQIEFTINFAVGRLNHCEKTGDNQYKLFLEPEREKINPSPWYAFAVKNKTETSQTIDITLVASEGVSRYKPKRSEGDDIWHAIPFSEGDGTLQFELTLSGQTKEYIAGQEIIDNVHYIEWLSSLIKEPQQTEVISLGVSSEGRNLAALEHRVESSDKWIILIGRQHPPEVTGALALLHFGELLFSDEPYVVKFRQKYNILLVPNMNPDGVYHGNWRLTAAGIDMNRDWKNLTLPETQAMANYLKKLVKDGGKIEFAIDFHSTRKNVFYTMPEDYEPRSGVPLRNPQRVYNWIEEIEELVGSVELDYQPGAHPESGVFKQFIADEFAAHAVTYEVSDNEERNNIKKVAEAALISLINRLD” as the sequence, how does the “soluble on expression in E. coli” value read?
A: not soluble

Q: For “MGSDKIHHHHHHMLVTELNIYPLKSARGIALKESAVSAEGLPGDRRAMLTDPSGHFITQRELPAIATVLARHEDGGMALSRERSGEIFARPSGQRMDVAVWKSIVSANIADDETNDTLSAWLGREVKLVFFDDAAKRIASLEWTGNETPVTFADGYQILVTTTASLAALNDNMRGNGEDAVGMERFRPNIVLETEEAWAEDRWAAIEIGGIRFDLVKPCARCIMTTQDQMTGSRDVPSPMKAMGRIRMSGDRRVPGPLFGWNVTPRGEGRLSVGDVARVVEERPEGWAIKRR”, which “soluble on expression in E. coli” value is on record?
A: not soluble

Q: For “MGSDKIHHHHHHMLYADENSFDIGAKITKTKPVLLPIGAVEAHGPHLPLGTDNILASEYSAKIAAETSGFVLPVLPYGQVWSLQDFPGSLTLSNETVTKVVVEIGESLYKQGFRLFVPVSGHLGNMAALKDAARELYAKYPDMVILHIFYPNIQKLAMDVREGNANHHTYIHACEIETSLMLYLSPENADMSRAIDDPPILPIDADFTPTPWQNFTKTAVLGEATLATAEKGEYLIEKTLKTCVELIKLEQEKIRKSTEME”, which “soluble on expression in E. coli” value is on record?
A: not soluble

Q: With “MGSDKIHHHHHHMMAQFEYSTLAHPQDIQQLEHILEQCFISALGGEEAYINMIGVENFRIIRRLEQVAGGLATLDMGQWWGGQRVPMTGIAVVGIAPEYRGSGAAIALMQHTLKELYDRGIAISALYPAVQSLYRKVGYEQGGSWCIWEIATQNIQVREQPLPLELVASINHEVFHELYQQQARQTHGYLDRHPAIWERIIQPNDKEIVYTYLIGTKDQPQGYIIFTQERTNNGEILFVKDWVLTTVAAAQTFWSFLASHRSQIQQVRWKSSAIDSLTLLLPEQTAKIQTTSRWLLRIIDVVKALELRGYPPGIQAELHLEIQDNLLTENNGKFILSVANGRGEVTKGGKGELQLDIRELAPLYTSLFTPYHLQIAGKLNGTETAILTATQIFAGASPWMADFF” as the sequence, how does the “soluble on expression in E. coli” value read?
A: not soluble

Q: With “MGSDKIHHHHHHMMDFDFLEGKRLTEDVALDETMVWNEDIEMLDLHLVATSALIGVVHRVSYELLSRYLPNDYTAVVVETLARHVKAVPTGTRVAVGVRVVGVVGNRVKFRGIVMSGDEKILEAEFVRAIVPREKLRRLALEKAEKTSRLFGI” as the sequence, how does the “soluble on expression in E. coli” value read?
A: soluble

Q: Which “soluble on expression in E. coli” value does the source give for “MGSDKIHHHHHHMMDMLMSTPNYNASLLAMATAALNALDSSHAGAAHATEAQQSHFLCNWMAQALKDKSFDKAIAGELTLWVRQGRSMGSSAQLKRLLQTIRHQYSTLAEHTMGLGNALAKMLEDARQQDVIVYTDTPVKTKLKLDADGQSSIIVCADEYQQHIRDGELIKPISLFVRADEKFLAKLAFSHGLMLTQGDKKSSLIKHHKSYKLFPKNQLPSLALLTFH” here?
A: not soluble

Q: Which “soluble on expression in E. coli” value does the source give for “MGSDKIHHHHHHMMELLNVNNLKVEFHRVEGIVKAVDGISYKLNKGESLGIVGESGSGKSVSVLSLLRLINRNGRIVDGEAIFLGKDLLKLNKEELRNIRGKDISIIFQNPMTSLNPIIRVGIQVMEPIIWHRLMKNEEARERAIELLERVGIPESPKRFLNYPFQFSGGMRQRVMIAMALACHPKLLIADEPTTALDVTIQAQIMELLQELKEEYGMSVIFITHDLSVATNFCDRIITMYAGKIVEEAPVEEILKTPLHPYTKGLLNSTLEIGSRGKKLVPIPGNPPNPTKHPSGCKFHPRCSFAMEICQREEPPLVNISENHRVACHLIKGESK” here?
A: not soluble

Q: With “MGSDKIHHHHHHMMENSLNIIEKMNPNQKINYDRVFQKVRESWERDSVRPKILLHSCCAPCSTYSLEYLTQSADVTIYFANSNIHPSTEYTRRKMVQEQFVKDFNERTGNNVQFIAAEYEPNVFLQMVRQKHLENEPEGGKRCTSCFEMRLDIVAEKALELGFDYFGSALTLSPKKNSQLINEIGLDIQKIYDVNYLPSDFKKNNGYKRSVEMCKEYDVYRQCYCGCIFAAKAQGIDLKEQNREAIKFIRNQS” as the sequence, how does the “soluble on expression in E. coli” value read?
A: not soluble

Q: With “MGSDKIHHHHHHMMEYWIRRALEVVKTPFLLFDLSVVEKKYLEMKAALKKADIYYAVKANSHPRIISLLARLGSNFDVASKGEIEKLLALGVDGKRMSFGNTIKREEDIAFAYKNGIRLFAVDSEMEVEKVAINAPGSFVFVRVETDGADADWPLSRKFGTNPEHALQLLSYASKMKLIPAGLSFHVGSQNLNPESWKKAIEIAGRVFKKAMRSGLNLFLLNVGGGFPVQHTKPIPSMEEIGKAIEEAIDENLWFVHNLKVIAEPGRYMVGEAGWLVTKVLLKSERSGEKWVYIDAGVFHGLAETIQNFEYEIRVLGKEREELEEYHLAGPTCDSVDVIYDRIFLPKSITLNDLVCFINAGAYTVEYNTRFNGIEPPKMVFIEELTEISIEEKIKTRVLD” as the sequence, how does the “soluble on expression in E. coli” value read?
A: not soluble

Q: With “MGSDKIHHHHHHMMGGEFTLTEREAEYLFRIIDSSINIFRRHQFFLWAQGELQGLLPHGMLICLFDEGNGQAVNIERFSRTDMDEIRFSELCRPDGGIVFRAMSAWSAGKNQPLLVCPNNSHTPTYKRFSNDLKRENLQRIAAHGMFDTNGRTTCFFTFTQISAALSERHAYFLELLMPHMHMALVRMLFHERHHKQGAVGERSRKLITDRETEILRHVQAGKSNHEIAQLLYISPLTVKNHIQKILKKLDVNNRAHAVAKAMALKITL” as the sequence, how does the “soluble on expression in E. coli” value read?
A: not soluble

Q: Which “soluble on expression in E. coli” value does the source give for “MGSDKIHHHHHHMMGKTEYLDYYSGKRVLVTGGAGAVGSNLVRRLLDLGAFVIVIDNLSSGYTWLLPQDAPNLLFIEGDITNDVDLKRVFNEEPEIIFHLAAFFANQNSVDYPEKDLWVNGFGTLKLLEYTRIYGKVERFVYASSGCSIYPSDAPMPFKEDLPISSWMSTPYQITKALGELYCNYFYKMYDIPITKARFFNSFGPGEVPGQYRNVIPNFIYWAMLGKPLPITGTGEETRDFTYVGDIVDGLLRMGYYREAIGEAFNLAAGREVKIKYLAEKVNELTGNTAGIVFKPRRKWDTKPRMLASNEKAKKVLGFNPDPDFDGRLAETVEWFKQNWELIKKSAEFGPGVSSAVR” here?
A: not soluble

Q: With “MGSDKIHHHHHHMMIDTPAVLIDRERLTANISRMAAHAGAHEIALRPHVKTHKIIEIAQMQVDAGARGITCATIGEAEIFAGAGFTDIFIAYPLYLTDHAVQRLNAIPGEISIGVDSVEMAQATAGLREDIKALIEVDSGHRRSGVTATASELSQIREALGSRYAGVFTFPGHSYGPGNGEQAAADELQALNNSVQRLAGGLTSGGSSPSAQFTDAIDEMRPGVYVFNDSQQITSGACTEKQVAMTVLSTVVSRNVSDRRIILDAGSKILSTDKPAWIDGNGFVLGNPEARISALSEHHATIFWPDKVLLPVIGEQLNIVPNHACNVINLVDEVYVREADGTFRTWKVVARGRNN” as the sequence, how does the “soluble on expression in E. coli” value read?
A: not soluble

Q: Which “soluble on expression in E. coli” value does the source give for “MGSDKIHHHHHHMMKMAEFIMVVGTSSNSGKTTITAGLCRILANKGYKVAPFKSQNMSLNSRVAKEDGEIAIAQYTQSLACRVEPSVHFNPILLKPKGNFISQVIVHGRPYKDMNYNEYRKNKDFFLKKIKESLEILDREYDYVIMEGAGSCCEINLLKDDIANLRIAELVNAKAILVADIDRGGVFASIYGTIKLLPENWRKLIKGIIINKFRGNVEVLKEGIEKIEELTGIPVLGIVPYDENLVLPEEDSQVLQSMRSFGNAKSGVEINVVRFSKISNFTDLDPLRYDAFIKFIDFDDDITGDILIFPGTRSSTKEAYYLKQHNFDEKVLEFLKDGGIVIGICGGYQVLGKELIDKEKKESDVGDIEGLKIFDAKTYFGNDKVVKNSCGFLEIDNKTFNVKGYEIHEGFTYSKEKPLIKIERGFGNCGNGFDGSIKKFGDGLAIGTYFHGIFENYEFRNYIINLIRKRKGLDEIYGDSYKDSIEKSLNYFAEVVERSVNLKPLGINAT” here?
A: not soluble
